For 4 molecules, Kd results are on record in paper PMC5997747.

B1: recombinant human NCAM2 FnIII1 domain (domain or fragment)
chain: SPYGVKIIELSQTTAKVSFNKPDSHGGVPIHHYQVDVKEVASEIWKIVRSHGVQTMVVLNNLEPNTTYEIRVAAVNGKGQGDYSKIEIFQTLPV
B2: recombinant human NCAM2 FnIII1-2 double domain (expressed in E. coli) (domain or fragment)
chain: SPYGVKIIELSQTTAKVSFNKPDSHGGVPIHHYQVDVKEVASEIWKIVRSHGVQTMVVLNNLEPNTTYEIRVAAVNGKGQGDYSKIEIFQTLPVREPSPPSIHGQPSSGKSFKLSITKQDDGGAPILEYIVKYRSKDKEDQWLEKKVQGNKDHIILEHLQWTMGYEVQITAANRLGYSEPTVYEFSMPPKPNIIKD

In the assay the target is FGFR1β (IIIc)/Fc chimera. Description: SPR; BIAcore 2000, 25 °C, 10 mM PBS pH 7.4; about 1000 RU FGFR1β (IIIc)/Fc and 750 RU human IgG1 Fc (control cell) immobilised on a CM4 chip by amine coupling; NCAM2 domains injected at 20-30 μl/min; steady state affinity fit, Kd roughly estimated.
The term Kd denotes the free concentration of one partner at which half of the binding sites on the other are occupied at equilibrium, for simple one-to-one binding. On to “NCAM2 FnIII1-2 domains expressed from P. pastoris (domain or fragment)”, for which the equilibrium dissociation constant (Kd) was 0.4 µM. In the case of “recombinant human NCAM2 FnIII2 domain (from UniProt O15394 592-693) (domain or fragment)”, the Kd was 4.4 µM. With B1, the equilibrium dissociation constant (Kd) was 0.29 µM. As to B2, the Kd is 0.13 µM.
